WO2011158973A1 (dated 2011)
Blank lines part the entries; values can stand above or below the binder they belong to.

Columns and labels:
[1] = molecular target: T1, human fibrin (human, UniProt P02671 36-629; P02675 45-491; P02679 27-437, limits assumed); assay: ELISA, hybridoma culture supernatant (undiluted) on fibrin plate; selection of the clone
T1 construct: Made on the plate: fibrinogen (Sigma) coated at 50 ug/ml, dried, then treated with 10 NIH U/ml human thrombin with 10 mM CaCl2 and 7 mM L-cysteine; also called fibrin plate; fibrin (1)
T1 sequence (looked up) 1: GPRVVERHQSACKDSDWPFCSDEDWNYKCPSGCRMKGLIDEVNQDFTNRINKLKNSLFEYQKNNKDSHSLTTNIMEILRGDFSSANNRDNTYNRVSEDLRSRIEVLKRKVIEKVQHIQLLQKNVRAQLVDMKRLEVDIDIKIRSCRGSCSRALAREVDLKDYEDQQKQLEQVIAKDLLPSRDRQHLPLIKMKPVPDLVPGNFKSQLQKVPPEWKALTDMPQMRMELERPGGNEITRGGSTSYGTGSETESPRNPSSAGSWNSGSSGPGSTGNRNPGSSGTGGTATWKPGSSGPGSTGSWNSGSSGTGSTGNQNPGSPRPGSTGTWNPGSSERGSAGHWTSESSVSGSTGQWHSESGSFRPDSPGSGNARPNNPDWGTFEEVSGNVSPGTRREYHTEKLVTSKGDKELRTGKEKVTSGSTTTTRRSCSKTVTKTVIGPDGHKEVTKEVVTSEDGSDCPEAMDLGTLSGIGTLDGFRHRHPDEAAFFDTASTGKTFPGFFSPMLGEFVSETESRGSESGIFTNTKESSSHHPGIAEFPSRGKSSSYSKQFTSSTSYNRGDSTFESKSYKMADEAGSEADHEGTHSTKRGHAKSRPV
T1 sequence (looked up) 2: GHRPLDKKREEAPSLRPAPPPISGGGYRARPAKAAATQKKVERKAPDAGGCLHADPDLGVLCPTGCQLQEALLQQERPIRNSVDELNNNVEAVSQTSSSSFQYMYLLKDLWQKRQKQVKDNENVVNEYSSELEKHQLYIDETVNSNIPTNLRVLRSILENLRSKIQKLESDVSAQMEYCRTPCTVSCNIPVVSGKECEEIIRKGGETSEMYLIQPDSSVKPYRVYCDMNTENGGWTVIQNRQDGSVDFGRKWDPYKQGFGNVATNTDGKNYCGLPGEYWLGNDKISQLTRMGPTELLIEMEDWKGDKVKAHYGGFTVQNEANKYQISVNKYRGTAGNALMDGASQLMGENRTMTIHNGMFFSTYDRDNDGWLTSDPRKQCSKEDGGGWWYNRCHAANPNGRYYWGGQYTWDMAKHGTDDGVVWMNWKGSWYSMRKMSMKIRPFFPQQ
T1 sequence (looked up) 3: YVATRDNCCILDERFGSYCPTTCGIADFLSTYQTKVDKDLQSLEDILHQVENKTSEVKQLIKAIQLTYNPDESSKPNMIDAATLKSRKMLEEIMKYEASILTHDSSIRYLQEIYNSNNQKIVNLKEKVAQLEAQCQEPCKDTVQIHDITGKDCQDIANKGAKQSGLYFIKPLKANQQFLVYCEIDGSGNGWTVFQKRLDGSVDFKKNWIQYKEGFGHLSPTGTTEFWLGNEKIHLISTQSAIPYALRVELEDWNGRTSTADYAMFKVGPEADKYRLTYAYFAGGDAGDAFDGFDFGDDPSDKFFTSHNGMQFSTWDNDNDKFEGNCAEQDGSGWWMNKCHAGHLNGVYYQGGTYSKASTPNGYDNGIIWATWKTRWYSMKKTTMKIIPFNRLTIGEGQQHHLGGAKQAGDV

[2] = molecular target: T2, mouse fibrinogen (mouse, UniProt E9PV24 20-557; Q8K0E8 20-481; Q8VCM7 26-436, limits assumed); assay: ELISA, hybridoma 102-10 culture supernatant on fibrinogen plate (Fig. 1C)
T2 construct: also called fibrinogen (4)
T2 sequence (looked up) 1: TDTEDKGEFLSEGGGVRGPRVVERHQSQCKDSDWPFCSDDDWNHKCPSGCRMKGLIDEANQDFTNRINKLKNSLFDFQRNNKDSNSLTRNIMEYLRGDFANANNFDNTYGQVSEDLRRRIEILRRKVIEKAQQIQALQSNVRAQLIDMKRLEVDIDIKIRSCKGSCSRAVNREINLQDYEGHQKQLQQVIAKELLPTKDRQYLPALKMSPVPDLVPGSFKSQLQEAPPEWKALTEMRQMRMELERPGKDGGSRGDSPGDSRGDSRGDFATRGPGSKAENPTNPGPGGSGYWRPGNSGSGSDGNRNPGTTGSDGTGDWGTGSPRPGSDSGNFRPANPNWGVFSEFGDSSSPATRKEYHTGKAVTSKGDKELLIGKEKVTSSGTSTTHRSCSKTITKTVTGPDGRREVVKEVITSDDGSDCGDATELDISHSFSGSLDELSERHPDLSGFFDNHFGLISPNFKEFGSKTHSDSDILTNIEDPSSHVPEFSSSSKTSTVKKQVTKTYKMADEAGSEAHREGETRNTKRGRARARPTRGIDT
T2 sequence (looked up) 2: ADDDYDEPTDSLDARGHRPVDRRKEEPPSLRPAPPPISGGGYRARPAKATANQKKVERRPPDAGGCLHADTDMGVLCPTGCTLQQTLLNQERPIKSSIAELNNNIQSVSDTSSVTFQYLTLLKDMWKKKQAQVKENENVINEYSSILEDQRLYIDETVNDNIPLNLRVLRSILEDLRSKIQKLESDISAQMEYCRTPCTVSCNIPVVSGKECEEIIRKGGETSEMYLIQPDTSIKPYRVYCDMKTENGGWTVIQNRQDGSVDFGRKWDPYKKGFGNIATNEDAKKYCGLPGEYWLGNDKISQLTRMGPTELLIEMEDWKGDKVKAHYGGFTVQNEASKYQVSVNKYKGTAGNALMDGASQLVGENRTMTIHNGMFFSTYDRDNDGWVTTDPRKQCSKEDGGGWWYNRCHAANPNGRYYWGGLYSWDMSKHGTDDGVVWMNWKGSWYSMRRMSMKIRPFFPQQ
T2 sequence (looked up) 3: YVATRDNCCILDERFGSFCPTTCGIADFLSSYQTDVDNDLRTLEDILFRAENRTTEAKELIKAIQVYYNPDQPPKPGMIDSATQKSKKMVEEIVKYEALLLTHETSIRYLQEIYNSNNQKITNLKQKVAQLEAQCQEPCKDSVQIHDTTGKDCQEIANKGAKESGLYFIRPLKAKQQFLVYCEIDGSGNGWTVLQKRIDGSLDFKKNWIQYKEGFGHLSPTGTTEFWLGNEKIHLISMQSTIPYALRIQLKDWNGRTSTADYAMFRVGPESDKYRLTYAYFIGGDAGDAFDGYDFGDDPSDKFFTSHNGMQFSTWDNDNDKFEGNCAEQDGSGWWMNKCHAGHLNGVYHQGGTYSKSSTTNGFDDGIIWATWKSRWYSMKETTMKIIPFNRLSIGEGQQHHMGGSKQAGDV

[3] = molecular target: T3, human fibrinogen (human, UniProt P02671 20-629; P02675 31-491; P02679 27-437, limits assumed); assay: ELISA, hybridoma culture supernatant (undiluted) on fibrinogen plate; selection of the clone
T3 construct: Bought (Sigma), coated on 96-well plates at 50 ug/ml in TBS pH 8.5; also called fibrinogen (Sigma) plate; fibrinogen (2)
T3 sequence (looked up) 1: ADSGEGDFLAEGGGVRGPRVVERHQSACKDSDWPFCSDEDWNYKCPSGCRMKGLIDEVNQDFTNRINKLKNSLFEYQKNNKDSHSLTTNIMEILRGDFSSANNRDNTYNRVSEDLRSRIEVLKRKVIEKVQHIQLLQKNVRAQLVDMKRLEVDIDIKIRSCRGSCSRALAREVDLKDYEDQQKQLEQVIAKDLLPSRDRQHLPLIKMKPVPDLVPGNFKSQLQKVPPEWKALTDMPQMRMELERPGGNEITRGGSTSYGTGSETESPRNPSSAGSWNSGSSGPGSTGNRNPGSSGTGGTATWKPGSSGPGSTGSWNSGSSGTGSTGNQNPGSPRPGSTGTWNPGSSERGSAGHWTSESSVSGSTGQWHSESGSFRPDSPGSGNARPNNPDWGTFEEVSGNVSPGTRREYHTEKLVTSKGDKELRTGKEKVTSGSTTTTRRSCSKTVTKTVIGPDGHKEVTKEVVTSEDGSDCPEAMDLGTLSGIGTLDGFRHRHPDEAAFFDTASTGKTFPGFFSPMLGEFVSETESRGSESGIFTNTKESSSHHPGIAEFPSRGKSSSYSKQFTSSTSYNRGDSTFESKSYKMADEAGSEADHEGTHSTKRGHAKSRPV
T3 sequence (looked up) 2: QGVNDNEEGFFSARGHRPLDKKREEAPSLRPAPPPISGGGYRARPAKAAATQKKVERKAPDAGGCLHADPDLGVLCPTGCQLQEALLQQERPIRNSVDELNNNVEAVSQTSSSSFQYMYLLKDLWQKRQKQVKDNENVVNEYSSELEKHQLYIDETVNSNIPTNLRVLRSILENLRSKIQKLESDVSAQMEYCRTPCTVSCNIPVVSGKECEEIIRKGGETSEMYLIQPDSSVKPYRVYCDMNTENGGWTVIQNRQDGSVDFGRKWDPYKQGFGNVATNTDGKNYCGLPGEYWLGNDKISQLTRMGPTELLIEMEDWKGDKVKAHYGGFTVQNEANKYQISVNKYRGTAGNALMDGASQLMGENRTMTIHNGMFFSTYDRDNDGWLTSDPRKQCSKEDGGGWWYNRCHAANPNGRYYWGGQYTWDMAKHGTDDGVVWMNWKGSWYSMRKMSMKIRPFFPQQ
T3 sequence (looked up) 3: T1 sequence (looked up) 3

[4] = molecular target: T2, mouse fibrinogen; assay: ELISA, purified chimeric antibody on fibrinogen plate (Fig. 3)
[5] = molecular target: T3, human fibrinogen; assay: as above
[6] = molecular target: T1, human fibrin; assay: ELISA, purified chimeric antibody on fibrin plate (Fig. 3)

binding result [1]: binds
binding result [2]: no binding
binding result [3]: no binding
B1: mouse anti-fibrin IgM antibody produced by hybridoma cell line 102-10 (accession number NITE BP-923) (antibody, V domains shown)
VH: QIQLVQSGPELKKPGETVKISCKASGYTFTNYGMNWVKQAPGKGLKWMGWINTYTGEATYADDFKGRFAFSLETSANTAYVQINNLKNEDTATYFCARLMDYWGQGTSVTVSS
VL: DIQMTQSPSSLSASLGGKVTITCKASQDINKYIAWFQHKPGKGPRLLIHYTSTLQPGIPSRFSGSGSGRDYSFSISNLEPEDLATYYCLQYDNLTWTFGGGTKLEIK
notes: Mouse IgM; Tested as hybridoma culture supernatant in ELISA; also called clone 102-10; mouse IgM antibody

binding result [4]: no binding
binding result [5]: no binding
binding result [6]: binds
B2: human type anti-fibrin chimeric antibody (human type IgG clone 102-10Hu) (antibody, V domains shown)
VH: B1 VH
VL: B1 VL
notes: made in CHO cells, purified on Protein G and hydroxyapatite; They may include a leader peptide; no cleavage site is stated; also called human chimeric antibody; human chimeric anti-fibrin IgG
